These results are taken from patent publication US20230002480A1.

Common to all, as to test: cell-based or functional assay
For assay [1], the target named is HIV-1 Env of pseudovirus C1080.c03 (clade CRF01_AE) (HIV-1).
Assay [2] addresses HIV-1 Env of pseudovirus C3347.c11 (clade CRF01_AE) (HIV-1).
Assay [3] addresses HIV-1 Env of pseudovirus R2184.c04 (clade CRF01_AE) (HIV-1).
Assay [4] concerns the target HIV-1 Env of pseudovirus BJOX010000.06.2 (clade CRF01_AE (T/F)) (HIV-1).
Assay [5] has as its target HIV-1 Env of pseudovirus BJOX028000.10.3 (clade CRF01_AE (T/F)) (HIV-1).
The target in assay [6] is HIV-1 Env of pseudovirus T278-50 (clade CRF02_AG) (HIV-1).
Assay [7] has as its target HIV-1 Env of pseudovirus 211-9 (clade CRF02_AG) (HIV-1).
Assay [8] addresses HIV-1 Env pseudovirus 6952.v1.c20 (HIV-1).
In assay [9] the target is HIV-1 Env pseudovirus 191955_A11 (HIV-1).
Assay [10] has as its target HIV-1 Env pseudovirus X1193_c1 (HIV-1).
For assay [11], the target named is HIV-1 Env pseudovirus P1981_C5_3 (HIV-1).
Assay [12] has as its target HIV-1 Env pseudovirus C3347.c11 (HIV-1).
The target of assay [13] is HIV-1 Env pseudovirus A07412M1.vrc12 (HIV-1).
Assay [14] deals with HIV-1 Env pseudovirus T255-34 (HIV-1).
Assay [15] has as its target HIV-1 Env pseudovirus 3301.v1.c24 (HIV-1).
The target in assay [16] is HIV-1 Env pseudovirus T257-31 (HIV-1).
Assay [17] has as its target HIV-1 Env pseudovirus T251-18 (HIV-1).
The target of assay [18] is HIV-1 Env pseudovirus R2184.c04 (HIV-1).
The target in assay [19] is HIV-1 Env pseudovirus 89-F1_2_25 (HIV-1).
The target of assay [20] is HIV-1 Env pseudovirus C1080.c03 (HIV-1).
The target in assay [21] is HIV-1 Env pseudovirus 620345.c01 (HIV-1).

On to 10-1074 (antibody), for which the IC50, titer in TZM.bl cells was greater than 50 µg/mL in assay [1]; greater than 50 µg/mL in assay [2]; greater than 50 µg/mL in assay [3]; greater than 50 µg/mL in assay [4]; greater than 50 µg/mL in assay [5]; 2.15 µg/mL in [6]. For the same substance, the IC50, titer in TZM.bl cells in assay [7] was 0.112 µg/mL. Moreover, the IC80, titer in TZM.bl cells in assay [1] was greater than 50 µg/mL; in assay [2] it was greater than 50 µg/mL; in [3] it was greater than 50 µg/mL; in assay [4] it was greater than 50 µg/mL; in assay [5], greater than 50 µg/mL; in [6], 18.3 µg/mL. In addition, the IC80, titer in TZM.bl cells in [7] amounted to 0.425 µg/mL.
Take 10E8 (antibody): the IC50, titer in TZM.bl cells amounted to 0.061 µg/mL in [1]; 0.016 µg/mL in [2]; 0.272 µg/mL in [3]; 0.341 µg/mL in assay [4]; 0.665 µg/mL in [5]; 0.949 µg/mL in assay [6]. The IC50, titer in TZM.bl cells in assay [7] is 1.09 µg/mL. The IC80, titer in TZM.bl cells in [1] came out at 0.731 µg/mL; in assay [2], 0.167 µg/mL; in assay [3] it was 2.46 µg/mL; in assay [4] it was 5.29 µg/mL; in assay [5], 7.36 µg/mL; in assay [6], 7.46 µg/mL. This substance also returned an IC80, titer in TZM.bl cells in assay [7] of 6.51 µg/mL.
Broadly, the IC50 is the concentration needed to halve the response being measured. One may read the IC80 as the point of the concentration-response curve where the effect stands at 80%. Low values mean greater potency, high ones weaker potency. Turning to N49P19 (antibody), the IC50 was greater than 50 µg/mL in assay [8]; greater than 50 µg/mL in [9]; 0.54 µg/mL in [10]; 20.2 µg/mL in assay [11]; 3.94 µg/mL in [12]; 3.89 µg/mL in [13]. Also, the IC50 in assay [14] was 0.948 µg/mL; in [15], 0.302 µg/mL; in assay [16] it was 0.661 µg/mL; in [17], 0.938 µg/mL; in assay [18] it was 0.132 µg/mL; in [19], greater than 50 µg/mL. Moreover, the values for the IC50 in [20] and in [21] were 0.682 µg/mL and greater than 50 µg/mL, respectively. In addition, the IC80 in assay [8] was greater than 50 µg/mL; in assay [9], greater than 50 µg/mL; in assay [10], 3.15 µg/mL; in [11], greater than 50 µg/mL; in [12] it was 25.7 µg/mL; in assay [13], 48.8 µg/mL. For the same substance, the IC80 in assay [14] was 6.22 µg/mL; in [15], 1.42 µg/mL; in assay [16] it was 3 µg/mL; in assay [17], 4.2 µg/mL; in [18], 0.445 µg/mL; in assay [19], greater than 50 µg/mL. Further, the IC80 is 3.05 µg/mL in assay [20] and greater than 50 µg/mL in assay [21]. Besides, the MPI was 0 in [8]; 16 in assay [9]; 99 in assay [10]; 68 in [11]; 87 in assay [12]; 80 in [13]. Moreover, the MPI in [14] worked out at 97; in assay [15], 98; in assay [16] it was 100; in [17], 100; in assay [18], 100; in assay [19] it was 7. In addition, the MPI in assay [20] turned out to be 100; in [21], 0.
Consider PG9 (antibody), for which the IC50, titer in TZM.bl cells in assay [1] is 0.004 µg/mL; in [2], 0.032 µg/mL; in assay [3], 0.255 µg/mL; in [4] it was 0.154 µg/mL; in [5] it was 1.1 µg/mL; in assay [6] it was 0.393 µg/mL. Moreover, in assay [7], the IC50, titer in TZM.bl cells turned out to be 0.049 µg/mL. Moreover, the IC80, titer in TZM.bl cells in assay [1] was 0.013 µg/mL; in assay [2], 0.113 µg/mL; in [3], 1.24 µg/mL; in [4] it was 0.74 µg/mL; in [5], 21.5 µg/mL; in assay [6], 3.19 µg/mL. In assay [7], this substance had an IC80, titer in TZM.bl cells of 0.243 µg/mL.
Consider PG16 (antibody), for which the IC50, titer in TZM.bl cells is 0.001 µg/mL in [1]; 0.008 µg/mL in assay [2]; 0.67 µg/mL in [3]; 1.2 µg/mL in assay [4]; greater than 50 µg/mL in [5]; 0.227 µg/mL in [6]. The IC50, titer in TZM.bl cells in [7] was 0.029 µg/mL. Further, the IC80, titer in TZM.bl cells in assay [1] is 0.003 µg/mL; in assay [2] it was 0.045 µg/mL; in assay [3] it was greater than 50 µg/mL; in [4], greater than 50 µg/mL; in assay [5] it was greater than 50 µg/mL; in assay [6], 18.6 µg/mL. Further, the IC80, titer in TZM.bl cells in assay [7] worked out at 0.144 µg/mL.
